Laboratory results as given in article PMC9067401 (Genes & Development, 2022).

B1: Hat2, full-length, yeast (natural protein)
chain: MENQEKPLSVDEEYDLWKSNVPLMYDFVSETRLTWPSLTVQWLPTPVQELDGGFIKQELIIGTHTSGEEENYLKFAEINLPKEILSNEDPQEEAGEEYQSSLPAPRSNIRITAKYEHEEEITRARYMPQDPNIVATINGQGTVFLYSRSEGLQSTLKFHKDNGYALSFSTLVKGRLLSGSDDHTVALWEVGSGGDPTKPVRTWNDLHSDIINDNKWHNFNKDLFGTVSEDSLLKINDVRANNTTIDTVKCPQPFNTLAFSHHSSNLLAAAGMDSYVYLYDLRNMKEPLHHMSGHEDAVNNLEFSTHVDGVVVSSGSDNRLMMWDLKQIGAEQTPDDAEDGVPELIMVHAGHRSSVNDFDLNPQIPWLVASAEEENILQVWKCSHSLPIVGGPPKVNKDIIS
B2: BRIL-fused Hat1ΔC (yeast Hat1 residues 1–320) (enzyme, UniProt Q12341 1-320, looked up)
chain: MSANDFKPETWTSSANEALRVSIVGENAVQFSPLFTYPIYGDSEKIYGYKDLIIHLAFDSVTFKPYVNVKYSAKLGDDNIVDVEKKLLSFLPKDDVIVRDEAKWVDCFAEERKTHNLSDVFEKVSEYSLNGEEFVVYKSSLVDDFARRMHRRVQIFSLLFIEAANYIDETDPSWQIYWLLNKKTKELIGFVTTYKYWHYLGAKSFDEDIDKKFRAKISQFLIFPPYQNKGHGSCLYEAIIQSWLEDKSITEITVEDPNEAFDDLRDRNDIQRLRKLGYDAVFQKHSDLSDEFLESSRKSLKLEERQFNRLVEMLLLLNNS

What was measured:
histone H4(7–102), yeast = histone H4(7–102), yeast (yeast, UniProt P02309 8-103); assay: crystal structure
Hat2, full-length, yeast = target: B1; assay: crystal structure

| Binder | binding result (histone H4(7–102), yeast) | binding result (Hat2, full-length, yeast) |
| --- | --- | --- |
| B1 | binds | – |
| B2 | binds | binds |
